According to patent publication US20130116195A1, “Binding ligand linked drug delivery conjugates of tubulysins” (priority 2009, published 2013):
Entries after “also recorded” stand apart in the source; their conditions may differ.

What was measured:
[1] = Toxicity as measured by weight loss; format: in vivo, mice; conditions: for tolerability (percent weight change): FIG. 6, 3 μmol/kg TIW, female mice
Experimental: METHOD: Additional In vivo antitumor method. Four to six week-old female nu/nu mice (Charles River, Wilmington, Mass.) were maintained on a standard 12 h light-dark cycle and fed ad libitum with folate-deficient chow (Harlan diet #TD00434, Harlan Teklad, Madison, Wis.) for the duration of the experiment. KB cells (1×10^6 per nu/nu mouse) in 100 μL were injected in the subcutis of the dorsal medial area. Mice were divided into groups of five, and test articles were freshly prepared and injected through the lateral tail vein under sterile conditions in a volume of 200 μL of phosphate-buffered saline (PBS). Intravenous (i.v.) treatments were typically initiated on approximately 9 post-tumor cell implantation when the KB tumors were approximately 100-200 mm^3 in volume. The mice in the control groups received no treatment. Growth of each s.c. tumor was followed by measuring the tumor three times per week during treatment and twice per week thereafter until a volume of 1500 mm^3 was reached. Tumors were measured in two perpendicular directions using Vernier calipers, and their volumes were calculated as 0.5×L×W^2, where L=measurement of longest axis in mm and W=measurement of axis perpendicular to L in mm. As a general measure of toxicity, changes in body weights were determined on the same schedule as tumor volume measurements. Survival of animals was monitored daily. Animals that were moribund (or unable to reach food or water) were euthanized by CO2 asphyxiation. All in vivo studies were performed in accordance with the American Accreditation Association of Laboratory Animal Care guidelines.
METHOD: Toxicity as Measured by Weight Loss. The percentage weight change of the mice was determined in mice (5 mice/group) on selected days post-tumor inoculation (PTI), and graphed.

[2] = Serum binding (30K NMWL filtration/HPLC-UV), human serum; format: in vitro ADME; conditions: for fraction unbound: human, 50 μM test article concentration in serum, n = 3, read-out: Human Serum % Bound (converted)
Experimental: (§1) METHOD: Serum binding against different species. Compounds are tested with 30K NMWL, subjected to Microcon filtration (10,000 g for 30 minutes), and compounds are detected by HPLC. […] There was two times the amount of free EC0531 in serum compared to EC0305.

[3] = Serum binding (30K NMWL filtration/HPLC-UV), mouse serum; format: in vitro ADME; conditions: 50 μM test article concentration in serum, n = 3, read-out: Mouse Serum % Bound (converted)
Experimental: as §1

[4] = system: folate receptor-positive KB cells; assay: Inhibition of Cellular DNA Synthesis (3H-thymidine incorporation cytotoxicity assay); format: cell-based; conditions: 2 hour pulse and 72 hour chase
Experimental: METHOD: Inhibition of Cellular DNA Synthesis. The compounds described herein were evaluated using an in vitro cytotoxicity assay that predicts the ability of the drug to inhibit the growth of folate receptor-positive KB cells. The compounds were comprised of folate linked to a respective chemotherapeutic drug, as prepared according to the protocols described herein. The KB cells were exposed for up to 7 h at 37° C. to the indicated concentrations of folate-drug conjugate in the absence or presence of at least a 100-fold excess of folic acid. The cells were then rinsed once with fresh culture medium and incubated in fresh culture medium for 72 hours at 37° C. Cell viability was assessed using a ^3H-thymidine incorporation assay. For compounds described herein, dose-dependent cytotoxicity was generally measurable, and in most cases, the IC50 values (concentration of drug conjugate required to reduce ^3H-thymidine incorporation into newly synthesized DNA by 50%) were in the low nanomolar range.
METHOD: In vitro test against the various cancer cell lines. Cells are heavily seeded in 24-well Falcon plates and allowed to form nearly confluent monolayers overnight. Thirty minutes prior to the addition of the test compound, spent medium is aspirated from all wells and replaced with fresh folate-deficient RPMI medium (FFRPMI). A subset of wells are designated to receive media containing 100 μM folic acid. The cells in the designated wells are used to determine the targeting specificity. […] Following one rinse with 1 mL of fresh FFRPMI containing 10% heat-inactivated fetal calf serum, each well receives 1 mL of medium containing increasing concentrations of test compound (4 wells per sample) in the presence or absence of 100 μM free folic acid as indicated. Treated cells are pulsed for 2 h at 37° C., rinsed 4 times with 0.5 mL of media, and then chased in 1 mL of fresh medium up to 70 h. Spent medium is aspirated from all wells and replaced with fresh medium containing 5 μCi/mL ^3H-thymidine. Following a further 2 h 37° C. incubation, cells are washed 3 times with 0.5 mL of PBS and then treated with 0.5 mL of ice-cold 5% trichloroacetic acid per well. After 15 min, the trichloroacetic acid is aspirated and the cell material solubilized by the addition of 0.5 mL of 0.25 N sodium hydroxide for 15 min. A 450 μL aliquot of each solubilized sample is transferred to a scintillation vial containing 3 mL of Ecolume scintillation cocktail and then counted in a liquid scintillation counter. Final tabulated results are expressed as the percentage of ^3H-thymidine incorporation relative to untreated controls.

[5] = system: subcutaneous KB tumors; assay: KB tumor assay, inhibition of tumor growth in mice; format: in vivo, nu/nu mice; conditions: FIG. 3A; 0.5, 0.75, 1 μmol/kg; tolerable and highly toxic dose levels
Experimental: METHOD: Inhibition of Tumor Growth in Mice. Four to seven week-old mice (Balb/c or nu/nu strains) were purchased from Harlan Sprague Dawley, Inc. (Indianapolis, Ind.). Normal rodent chow contains a high concentration of folic acid (6 mg/kg chow); accordingly, mice used were maintained on the folate-free diet (Harlan diet #TD00434) for 1 week before tumor implantation to achieve serum folate concentrations close to the range of normal human serum. For tumor cell inoculation, 1×10^6 M109 cells (Balb/c strain) or 1×10^6 KB cells (nu/nu strain) in 100 μL were injected in the subcutis of the dorsal medial area. Tumors were measured in two perpendicular directions every 2-3 days using a caliper, and their volumes were calculated as 0.5×L×W^2, where L=measurement of longest axis in mm and W=measurement of axis perpendicular to L in mm. […]
METHOD: General KB Tumor Assay. The anti-tumor activity of the compounds described herein, when administered intravenously (i.v.) to tumor-bearing animals, was evaluated in nu/nu mice bearing subcutaneous KB tumors. […] Tumor growth was measured using calipers at 2-day or 3-day intervals in each treatment group. Tumor volumes were calculated using the equation V=a×b^2/2, where “a” is the length of the tumor and “b” is the width expressed in millimeters.
METHOD: Additional In vivo antitumor method. […] Survival of animals was monitored daily. […]

With `CCCC(=O)OCN(C(=O)[C@@H](NC(=O)[C@H]1CCCCN1C)C(C)CC)[C@H](C[C@@H](OC(C)=O)c1nc(C(=O)N[C@@H](Cc2ccc(O)cc2)C[C@H](C)C(=O)NNC(=O)OCCSSC[C@H](NC(=O)[C@H](CC(=O)O)NC(=O)[C@H](CCCNC(=N)N)NC(=O)[C@H](CC(=O)O)NC(=O)CC[C@H](NC(=O)c2ccc(NCc3cnc4nc(N)[nH]c(=O)c4n3)cc2)C(=O)O)C(=O)O)cs1)C(C)C` (stereo partly drawn) [EC0305] the “tolerability (percent weight change)” value [1] was “not well tolerated; also recorded: exceeded MTD”, the fraction unbound [2] was 0.207 and the fraction unbound [3] was 0.362.
In the case of `CCC(C)[C@H](NC(=O)[C@H]1CCCCN1C)C(=O)N(COC(=O)CC(C)C)[C@H](C[C@@H](OC(C)=O)c1nc(C(=O)N[C@@H](Cc2ccc(O)cc2)C[C@H](C)C(=O)NNC(=O)OCCSSC[C@H](NC(=O)[C@H](CC(=O)O)NC(=O)[C@H](CCCNC(=N)N)NC(=O)[C@H](CC(=O)O)NC(=O)CC[C@H](NC(=O)c2ccc(NCc3cnc4nc(N)[nH]c(=O)c4n3)cc2)C(=O)O)C(=O)O)cs1)C(C)C` (stereo partly drawn) [EC0510], the “tolerability (percent weight change)” value [1] is reported as “exceeded MTD” and the “tolerability (percent weight change)” value ([1]; listed as EC0310) is reported as “not well tolerated”.
In the case of `CCCC(=O)OCN(C(=O)[C@@H](NC(=O)[C@H]1CCCCN1C)C(C)CC)[C@H](C[C@@H](OC(C)=O)c1nc(C(=O)N[C@@H](Cc2ccc(O)cc2)C[C@H](C)C(=O)NNC(=O)OCCSSC[C@H](NC(=O)[C@H](CCC(=O)NC[C@H](O)[C@@H](O)[C@H](O)[C@H](O)CO)NC(=O)[C@H](CCC(=O)O)NC(=O)[C@H](CCC(=O)NC[C@H](O)[C@@H](O)[C@H](O)[C@H](O)CO)NC(=O)[C@H](CCC(=O)NC[C@H](O)[C@@H](O)[C@H](O)[C@H](O)CO)NC(=O)[C@H](CCC(=O)O)NC(=O)[C@H](CCC(=O)NC[C@H](O)[C@@H](O)[C@H](O)[C@H](O)CO)NC(=O)CC[C@H](NC(=O)c2ccc(NCc3cnc4nc(N)[nH]c(=O)c4n3)cc2)C(=O)O)C(=O)O)cs1)C(C)C` (stereo partly drawn) [EC0530], the “cytotoxic activity in the presence of an excess of a folate-fluorescein conjugate” value [4] is reported as “blocked”.
With `CCCC(=O)OCN(C(=O)[C@@H](NC(=O)[C@H]1CCCCN1C)C(C)CC)[C@H](C[C@@H](OC(C)=O)c1nc(C(=O)N[C@@H](Cc2ccc(O)cc2)C[C@H](C)C(=O)NNC(=O)OCCSSC[C@H](NC(=O)[C@H](CCC(=O)NC[C@H](O)[C@@H](O)[C@H](O)[C@H](O)CO)NC(=O)[C@H](CCC(=O)O)NC(=O)[C@H](CCC(=O)NC[C@H](O)[C@@H](O)[C@H](O)[C@H](O)CO)NC(=O)[C@H](CCC(=O)O)NC(=O)[C@H](CCC(=O)NC[C@H](O)[C@@H](O)[C@H](O)[C@H](O)CO)NC(=O)CC[C@H](NC(=O)c2ccc(NCc3cnc4nc(N)[nH]c(=O)c4n3)cc2)C(=O)O)C(=O)O)cs1)C(C)C` (stereo partly drawn) [EC0531] the “weight loss or major organ tissue degeneration” value ([1]; FIG. 4B, 1, 2, 3 μmol/kg TIW two weeks) was “apparent absence of weight loss or major organ tissue degeneration”, the “tolerability (percent weight change)” value [1] was “well tolerated; also recorded: safe and tolerable” and the fraction unbound [2] was 0.38. For the same molecule, the “amount of free conjugate in serum compared to EC0305” value ([2]; serum binding assay) was “two times”, the fraction unbound [3] was 0.503 and the “cytotoxic activity in the presence of an excess of a folate-fluorescein conjugate” value [4] was “blocked”. For the same molecule, the “cytotoxic activity in the presence of an excess of folic acid” value [4] was “blocked”.
With `CCC(C)[C@H](NC(=O)[C@H]1CCCCN1C)C(=O)N(COC(=O)CC(C)C)[C@H](C[C@@H](OC(C)=O)c1nc(C(=O)N[C@@H](Cc2ccc(O)cc2)C[C@H](C)C(=O)NNC(=O)OCCSSC[C@H](NC(=O)[C@H](CCC(=O)NC[C@H](O)[C@@H](O)[C@H](O)[C@H](O)CO)NC(=O)[C@H](CCC(=O)O)NC(=O)[C@H](CCC(=O)NC[C@H](O)[C@@H](O)[C@H](O)[C@H](O)CO)NC(=O)[C@H](CCC(=O)NC[C@H](O)[C@@H](O)[C@H](O)[C@H](O)CO)NC(=O)[C@H](CCC(=O)O)NC(=O)[C@H](CCC(=O)NC[C@H](O)[C@@H](O)[C@H](O)[C@H](O)CO)NC(=O)CC[C@H](NC(=O)c2ccc(NCc3cnc4nc(N)[nH]c(=O)c4n3)cc2)C(=O)O)C(=O)O)cs1)C(C)C` (stereo partly drawn) [EC0533] the “cytotoxic activity in the presence of an excess of a folate-fluorescein conjugate” value [4] was “blocked”.
In the case of `CCC(C)[C@H](NC(=O)[C@H]1CCCCN1C)C(=O)N(COC(=O)CC(C)C)[C@H](C[C@@H](OC(C)=O)c1nc(C(=O)N[C@@H](Cc2ccc(O)cc2)C[C@H](C)C(=O)NNC(=O)OCCSSC[C@H](NC(=O)[C@H](CCC(=O)NC[C@H](O)[C@@H](O)[C@H](O)[C@H](O)CO)NC(=O)[C@H](CCC(=O)O)NC(=O)[C@H](CCC(=O)NC[C@H](O)[C@@H](O)[C@H](O)[C@H](O)CO)NC(=O)[C@H](CCC(=O)O)NC(=O)[C@H](CCC(=O)NC[C@H](O)[C@@H](O)[C@H](O)[C@H](O)CO)NC(=O)CC[C@H](NC(=O)c2ccc(NCc3cnc4nc(N)[nH]c(=O)c4n3)cc2)C(=O)O)C(=O)O)cs1)C(C)C` (stereo partly drawn) [EC0543], the observed weight loss ([1]; FIG. 9, 3 μmol/kg, nu/nu mice with KB tumors) is reported as 15 to 18% and the “cytotoxic activity in the presence of an excess of a folate-fluorescein conjugate” value [4] is reported as “blocked”.
For `CCCC(=O)OCN(C(=O)[C@@H](NC(=O)[C@H]1CCCCN1C)C(C)CC)[C@H](C[C@@H](OC(C)=O)c1nc(C(=O)N[C@@H](Cc2ccc(O)cc2)C[C@H](C)C(=O)O)cs1)C(C)C` (stereo partly drawn) [tubulysin B, reference compound], the “toxicity (percent body weight change)” value ([1]; mouse, in vivo) was “excessive toxicity” and the “responses (animals)” value [5] was 0/5.
